Numbering of substitutions follows the chain as printed.
B1: NP3-C11 (antibody, V domains shown)
VH: EVQLVESGGGLVRPGGSLKLSCAASGFTFSDYYMYWVRQTPEKRLEWVATISDGGGYNYYPDSVKGRFTVSRDNAKNNLYLQMSSLKSEDTAMYYCVRDKYDGWGSDFDVWGAGTTVTVSS
VL: DIVMTQSPSLMSTSLGERVTMTCTANSSVSSNYMHWYQQKPGSSPKLWIYSTSNLASGVPARFSGSGSGTSYSLTISNMEAEDAATYYCHQFHRSPRTFGGGTKLEIK
B2: NP3-G9 (antibody, V domains shown)
VH: EVQLQQSGAELVRPGSSVKISCKASGYAFSNYWMNWVRQRPGQGLEWIGQIYPGNDDTYYNGKFKGKVTLTADKSSTTAYIQLISLTSEDSAVYFCARRPLFYAMDYWGQGTSVTVSS
VL: DIQMTQSPSSLAVSLGQRASISCKASQSVDYDGESYMNWYQQKPGQPPKVLIYAASNLESGIPARFSGSGAGTDFTLSIHPVEEEDAATYYCQQSYEDPWTFGGGTKLELK
B3: NP3-B12 (antibody, V domains shown)
VH: EVQLQQSGAELMKPGASVKISCKATGYTFSSYWIEWVKQRPGHGLEWIGEFFPGSGNTNYNEKFKGKATFTADTSSNTAYMQLSSLTSEDSAVYYCARRGLYDGYYVRYFDVWGAGTTVTVSS
VL: DIVLTQSPASLAVSLGQRATISCKASQSVDYDGYSYMNWYQQKPGQPPKLLIYAASNLESGIPARFSGSGSGTDFTLNIHPVEEEDAATYYCQQSNADPFTFGGGTKLELK
B4: NP3-G8 (antibody, V domains shown)
VH: QVQLQQSGPELKKPGETVKISCKASGYTFTDYSMHWVKQAPGKGLKWLGWKNTESGEETFADDFKGRFDFSLETSASTVYLQIKNLKNEDTAAYFCARSGDIYAMDYWGQGTTVTVSS
VL: B3 VL with D1E, I2N, Y34G, N57T, R65G, A97E, F100W, L110I
B5: NP3-C9 (antibody, V domains shown)
VH: QIQLVQSGPELKKPGETVKISCKASGYTFTDYSIHWVKQAPGKDLKWVGWINTETGEPTYADDFEGRFAFSLETSASTAFLQINNLKNEDTATYFCSRGAATGFWGQGTTLTVSS
VL: B3 VL with Y34D, A54V, E84D, S95T, A97E, F100L, G104A
B6: NP3-E6 (antibody, V domains shown)
VH: EVQLQQSGAELMRPGASVKISCKATGYTFSSYWIEWVKQRPGHGLEWIGEILPGSDNTNYNEKFKGKATLTADTSSNTAYMHLSSLTSEDSAVYSCARRLFLRRYFDVWGAGTTVTVSS
VL: B3 VL with V13L, Y34D, Y53S, S67G, A97E, L110I
B7: NP3-G12 (antibody, V domains shown)
VH: B6 VH with V2A, L11P, R13K, A24T, S30T, Y32D, K38Q, D56G, K63N, S95Y
VL: B3 VL with L4M, Y34D, S67G, S69G, A97E
B8: NP3-A7 (antibody, V domains shown)
VH: QIQLVQSGAELVKPGASVKLSCTASGFNIKDTYIHWVRQRPEQGLEWIGRIDPANGDTKYDPKFQDKATLIADTSSNTAYLQLGSLTSEDTAVYYCARYRIYYFDYWGQGTTLTVSS
VL: DIQMTQSPASVPVTPGESVSISCRSSKSLLHSNGNTYVYWFLQRPGQSPRLLIYRMSNLASGVPDRFSGSGSGTAITLRISRVEAEDVGVYSCMQHLEYPLTFGAGTKLEIK

What was measured:
[1] = target: T1, SARS-CoV-2 N protein, full-length (SARS-CoV-2, UniProt P0DTC9 1-419); experiment: Octet, KD (nM) heat map
T1 construct: mature; also called SARS-CoV-2 nucleoprotein

[2] = target: T2, SARS-CoV-2 N protein oligomerization domain (SARS-CoV-2, UniProt P0DTC9 247-364); experiment: Octet, KD (nM) heat map
T2 construct: also called N olig. domain; OD

[3] = target: SARS-CoV-2 N protein RNA-binding domain (SARS-CoV-2, UniProt P0DTC9 44-180); experiment: Octet, KD (nM) heat map
[4] = target: T1, SARS-CoV-2 N protein, full-length; experiment: Octet (BLI) kinetics
[5] = target: T2, SARS-CoV-2 N protein oligomerization …; experiment: Octet (BLI) kinetics

Binder | binding result [1] | binding result [2] | binding result [3] | Kd [4] [nM] | Kd [5] [nM]
B1 | binds | no binding |  |  | 
B2 |  |  | no binding |  | 
B3 |  |  | no binding | 1 | 0.78
B4 |  |  | no binding | 2.54 | 1.05
B5 |  | no binding | no binding | 0.75 | 
B6 |  |  | no binding | 0.48 | 
B7 |  |  | no binding |  | 
B8 |  | no binding | no binding | 2.75 | 

Reference: patent publication US20250320278A1 (LA JOLLA INSTITUTE FOR IMMUNOLOGY, published 2025)
